Results: paper PMC3557383

Target: T1, RepA (ORF3) (Moraxella bovis ATCC 10900 (plasmid pMbo4.6)) (UniProt D0V0D3)
T1 sequence: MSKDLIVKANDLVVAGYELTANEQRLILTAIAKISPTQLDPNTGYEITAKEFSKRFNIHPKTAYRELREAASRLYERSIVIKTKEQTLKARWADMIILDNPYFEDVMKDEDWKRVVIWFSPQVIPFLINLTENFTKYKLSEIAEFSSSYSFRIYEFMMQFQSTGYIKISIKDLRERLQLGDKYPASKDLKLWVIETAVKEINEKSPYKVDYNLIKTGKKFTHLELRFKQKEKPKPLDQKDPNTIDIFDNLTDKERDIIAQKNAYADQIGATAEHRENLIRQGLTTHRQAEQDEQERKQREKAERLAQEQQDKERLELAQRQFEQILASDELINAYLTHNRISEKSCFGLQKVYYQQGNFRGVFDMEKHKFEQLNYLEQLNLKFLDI
Test: EMSA
Conditions: 10 mM Tris-HCl pH 7.5, 10 mM MgCl2, 100 mM NaCl, 0.2 mM DTT, 5% glycerol, 30 ul, 22 C 20 min; 6% PAGE 0.4x TBE at 4 C

| Sequence | binding |
| --- | --- |
| AAGAATTCGGGCGTGGTTTTGGGGATTGATTTTGTTTTGTCTTTTTAGCTAAAAAAACAAGAAAATTAACAAGAAAAAGAGCCAAAACCGAGTGCTTTTTCGGTTTTGGCGTTTTTTTATTTTTTTAATATATTTTTAATAGTTTTTAGACCCCCTGCAAAGCCTTATGTATCAAAGGTTTGCG (double strand) [orirep32] | no binding |
| CTAGGAGGGATTGACTACCAAATAGGAGGGATTGACTACTCAAATAGGAGGGATTGACTACTCAAATAGGAGGGATTGACTACCAAATAGGAGTATTTACAATAACTCTTTTTAGGTGTATAATTAATTACTCCTTTTTTGCTAATGAGACCTAAAAATGAGCAAAGATTTAATTGTAGGATCCAA (double strand) [orirep15] | binds |
